# Target: MERTK (UniProt Q12866)
# Assay: phosphorylation enrichment, bacterial display (enrichment ratio); higher = better substrate or ligand; peptides without Tyr show the background
# 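Note: 11-residue human phosphosite peptides and single-mutation variants displayed on the E. coli surface, counted by deep sequencing, each peptide's frequency after selection divided by its frequency in the unselected input library; frequency after pTyr selection over input frequency; kinase dosed for 20-30% of maximal phosphorylation in three min.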
# Chain of MERTK (Q12866 whole entry, looked up): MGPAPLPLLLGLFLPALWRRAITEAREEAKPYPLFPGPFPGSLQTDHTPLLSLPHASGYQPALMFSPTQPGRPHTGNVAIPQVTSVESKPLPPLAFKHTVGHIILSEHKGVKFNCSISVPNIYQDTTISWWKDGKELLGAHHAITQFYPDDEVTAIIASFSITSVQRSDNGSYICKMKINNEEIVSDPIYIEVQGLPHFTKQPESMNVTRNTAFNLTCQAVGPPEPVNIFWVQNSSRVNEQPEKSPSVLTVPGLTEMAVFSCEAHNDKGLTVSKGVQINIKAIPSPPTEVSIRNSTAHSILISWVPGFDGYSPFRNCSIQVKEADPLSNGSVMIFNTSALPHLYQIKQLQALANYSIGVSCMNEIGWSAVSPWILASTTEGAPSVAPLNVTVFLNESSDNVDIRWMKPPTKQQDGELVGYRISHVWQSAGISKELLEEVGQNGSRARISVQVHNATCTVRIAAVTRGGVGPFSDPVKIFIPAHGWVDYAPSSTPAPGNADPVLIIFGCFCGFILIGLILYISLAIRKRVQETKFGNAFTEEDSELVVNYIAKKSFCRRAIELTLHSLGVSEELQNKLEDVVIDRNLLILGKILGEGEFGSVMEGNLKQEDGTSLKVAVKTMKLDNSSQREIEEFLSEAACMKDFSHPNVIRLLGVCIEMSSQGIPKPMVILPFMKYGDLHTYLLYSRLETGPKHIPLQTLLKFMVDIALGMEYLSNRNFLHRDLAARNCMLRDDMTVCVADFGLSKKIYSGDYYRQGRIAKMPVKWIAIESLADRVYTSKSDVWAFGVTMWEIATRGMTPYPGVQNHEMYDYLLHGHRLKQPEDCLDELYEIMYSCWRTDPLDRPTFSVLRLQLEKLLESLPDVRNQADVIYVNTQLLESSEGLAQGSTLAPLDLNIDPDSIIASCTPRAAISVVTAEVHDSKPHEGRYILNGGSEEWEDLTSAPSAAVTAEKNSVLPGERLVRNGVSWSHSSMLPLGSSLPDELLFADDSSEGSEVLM
row,Sequence,phosphorylation enrichment
1,SLNEGYARDFD [FBP1_Y216],0.485
2,SYPREYGSQEG [RBM10_Y48],0.409
3,CSRCFYQLTKL [AR_Y858_R856C],0.55
4,SSAAGYACLAY [MVD_Y131],0.498
5,QNTADYFDLFG [PTPN11_Y62_G60A_YF],0.691
6,DNAFQYMLTDR [MYH7_Y164_YF],0.374
7,GDFLSYREFHL [ERBIN_Y1107_S1112L_YF],0.423
8,VGTTAYVAPEA [IRAK4_Y354_M355V],0.427
9,IEEGTYGVVFR [CDK11B_Y449_YF],3.13
10,PQGVGYPQQQQ [EP300_Y2219_P2221Q],0.4
11,GIVEDYRPPVY [ACVRL1_Y421_F425V],0.403
12,VTSLKYSTSPY [BRIP1_Y916],0.493
13,CTTIHYNYMCK [TP53_Y234_N239K],0.456
14,RSGIYYKPESL [L2HGDH_Y103_H98R],17
15,LEISPYMLSGP [LRRK2_Y1718_R1723P],1.97
16,QLFGAYLRIHA [BSCL2_Y213_YF],0.599
17,CDIARYIVSQL [MAST2_Y461_P459A],0.43

row,Sequence,phosphorylation enrichment
1,GNLLIYTELGK [HGD_Y166_F169L],4.86
2,KRAIGYFSATS [FAM120A_Y327_YF],0.362
3,KTVQDYLKKFF [MMP8_Y36_E38K_YF],0.494
4,YEKFLYFLPAS [DYNC2H1_Y346_H341Y],2.16
5,VPVNGYQPVPA [ROR2_Y824],0.382
6,CIILLYIFLKN [STXBP1_Y411_R406C],0.363
7,TNRSVYFKPSL [NUP153_Y382],0.455
8,GHPYAYDWISI [BEST1_Y227_L224P],8.66
9,STFVPYEIKVQ [L1CAM_Y784],0.338
10,FRQNVYIPGSN [PCDHGA1_Y895_YF],0.416
11,QEALEYFMKQI [PIK3CA_Y1038_M1043I],0.449
12,QKNVSYVSRVS [TASOR_Y1043_T1046R],0.537
13,TFGQVYKGRHV [TNIK_Y40_YF],0.34
14,IMVFVYCRVFQ [ADRB2_Y219_S220C],0.449
15,REGKIYEYNQV [ZNF665_Y162_H157R],3.19
16,NTGGFYDLFGG [PTPN11_Y63_D61G_YF],9.2

# System: c-Abl (mouse)
# Assay: as above
row,Sequence,phosphorylation enrichment
1,SLNEGYARDFD [FBP1_Y216],0.767
2,SYPREYGSQEG [RBM10_Y48],0.586
3,CSRCFYQLTKL [AR_Y858_R856C],0.564
4,SSAAGYACLAY [MVD_Y131],0.897
5,QNTADYFDLFG [PTPN11_Y62_G60A_YF],1.13
6,DNAFQYMLTDR [MYH7_Y164_YF],0.47
7,GDFLSYREFHL [ERBIN_Y1107_S1112L_YF],0.805
8,VGTTAYVAPEA [IRAK4_Y354_M355V],0.653
9,IEEGTYGVVFR [CDK11B_Y449_YF],1.2
10,PQGVGYPQQQQ [EP300_Y2219_P2221Q],0.599
11,GIVEDYRPPVY [ACVRL1_Y421_F425V],0.539
12,VTSLKYSTSPY [BRIP1_Y916],0.537
13,CTTIHYNYMCK [TP53_Y234_N239K],0.551
14,RSGIYYKPESL [L2HGDH_Y103_H98R],45.6
15,LEISPYMLSGP [LRRK2_Y1718_R1723P],0.866
16,QLFGAYLRIHA [BSCL2_Y213_YF],0.744
17,CDIARYIVSQL [MAST2_Y461_P459A],0.667

row,Sequence,phosphorylation enrichment
1,GNLLIYTELGK [HGD_Y166_F169L],2.29
2,KRAIGYFSATS [FAM120A_Y327_YF],0.362
3,KTVQDYLKKFF [MMP8_Y36_E38K_YF],0.66
4,YEKFLYFLPAS [DYNC2H1_Y346_H341Y],0.89
5,VPVNGYQPVPA [ROR2_Y824],0.439
6,CIILLYIFLKN [STXBP1_Y411_R406C],0.492
7,TNRSVYFKPSL [NUP153_Y382],0.556
8,GHPYAYDWISI [BEST1_Y227_L224P],0.661
9,STFVPYEIKVQ [L1CAM_Y784],0.678
10,FRQNVYIPGSN [PCDHGA1_Y895_YF],0.536
11,QEALEYFMKQI [PIK3CA_Y1038_M1043I],1.28
12,QKNVSYVSRVS [TASOR_Y1043_T1046R],0.547
13,TFGQVYKGRHV [TNIK_Y40_YF],0.555
14,IMVFVYCRVFQ [ADRB2_Y219_S220C],0.63
15,REGKIYEYNQV [ZNF665_Y162_H157R],1.07
16,NTGGFYDLFGG [PTPN11_Y63_D61G_YF],0.836

# Target: Fyn (UniProt P06241)
# Assay: as above
# Chain of Fyn (P06241 whole entry, looked up): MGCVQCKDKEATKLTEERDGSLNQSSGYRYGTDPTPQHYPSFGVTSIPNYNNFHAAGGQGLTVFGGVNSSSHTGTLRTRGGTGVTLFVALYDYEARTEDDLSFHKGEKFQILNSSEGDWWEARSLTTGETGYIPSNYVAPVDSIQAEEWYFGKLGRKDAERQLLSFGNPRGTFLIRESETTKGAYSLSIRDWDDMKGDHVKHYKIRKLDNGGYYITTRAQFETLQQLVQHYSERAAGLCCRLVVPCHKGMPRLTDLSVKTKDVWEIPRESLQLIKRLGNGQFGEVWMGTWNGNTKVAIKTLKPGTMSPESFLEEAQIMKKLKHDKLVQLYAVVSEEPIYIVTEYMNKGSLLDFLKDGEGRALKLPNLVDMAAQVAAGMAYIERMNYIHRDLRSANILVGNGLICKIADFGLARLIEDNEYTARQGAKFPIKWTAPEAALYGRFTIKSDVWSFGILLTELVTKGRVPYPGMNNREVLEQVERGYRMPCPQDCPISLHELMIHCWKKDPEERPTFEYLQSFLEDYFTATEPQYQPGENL
row,Sequence,phosphorylation enrichment
1,SLNEGYARDFD [FBP1_Y216],0.639
2,SYPREYGSQEG [RBM10_Y48],0.424
3,CSRCFYQLTKL [AR_Y858_R856C],0.429
4,SSAAGYACLAY [MVD_Y131],0.531
5,QNTADYFDLFG [PTPN11_Y62_G60A_YF],1.32
6,DNAFQYMLTDR [MYH7_Y164_YF],0.47
7,GDFLSYREFHL [ERBIN_Y1107_S1112L_YF],0.467
8,VGTTAYVAPEA [IRAK4_Y354_M355V],0.392
9,IEEGTYGVVFR [CDK11B_Y449_YF],8.86
10,PQGVGYPQQQQ [EP300_Y2219_P2221Q],0.608
11,GIVEDYRPPVY [ACVRL1_Y421_F425V],0.406
12,VTSLKYSTSPY [BRIP1_Y916],0.523
13,CTTIHYNYMCK [TP53_Y234_N239K],0.482
14,RSGIYYKPESL [L2HGDH_Y103_H98R],2.43
15,LEISPYMLSGP [LRRK2_Y1718_R1723P],3.67
16,QLFGAYLRIHA [BSCL2_Y213_YF],0.784
17,CDIARYIVSQL [MAST2_Y461_P459A],0.447

row,Sequence,phosphorylation enrichment
1,GNLLIYTELGK [HGD_Y166_F169L],5.68
2,KRAIGYFSATS [FAM120A_Y327_YF],0.382
3,KTVQDYLKKFF [MMP8_Y36_E38K_YF],0.575
4,YEKFLYFLPAS [DYNC2H1_Y346_H341Y],0.868
5,VPVNGYQPVPA [ROR2_Y824],0.382
6,CIILLYIFLKN [STXBP1_Y411_R406C],0.378
7,TNRSVYFKPSL [NUP153_Y382],0.421
8,GHPYAYDWISI [BEST1_Y227_L224P],0.929
9,STFVPYEIKVQ [L1CAM_Y784],0.538
10,FRQNVYIPGSN [PCDHGA1_Y895_YF],0.447
11,QEALEYFMKQI [PIK3CA_Y1038_M1043I],0.545
12,QKNVSYVSRVS [TASOR_Y1043_T1046R],0.438
13,TFGQVYKGRHV [TNIK_Y40_YF],0.39
14,IMVFVYCRVFQ [ADRB2_Y219_S220C],0.51
15,REGKIYEYNQV [ZNF665_Y162_H157R],1.41
16,NTGGFYDLFGG [PTPN11_Y63_D61G_YF],7.59

# Target: Fes (UniProt P07332)
# Assay: as above
# Chain of Fes (P07332 whole entry, looked up): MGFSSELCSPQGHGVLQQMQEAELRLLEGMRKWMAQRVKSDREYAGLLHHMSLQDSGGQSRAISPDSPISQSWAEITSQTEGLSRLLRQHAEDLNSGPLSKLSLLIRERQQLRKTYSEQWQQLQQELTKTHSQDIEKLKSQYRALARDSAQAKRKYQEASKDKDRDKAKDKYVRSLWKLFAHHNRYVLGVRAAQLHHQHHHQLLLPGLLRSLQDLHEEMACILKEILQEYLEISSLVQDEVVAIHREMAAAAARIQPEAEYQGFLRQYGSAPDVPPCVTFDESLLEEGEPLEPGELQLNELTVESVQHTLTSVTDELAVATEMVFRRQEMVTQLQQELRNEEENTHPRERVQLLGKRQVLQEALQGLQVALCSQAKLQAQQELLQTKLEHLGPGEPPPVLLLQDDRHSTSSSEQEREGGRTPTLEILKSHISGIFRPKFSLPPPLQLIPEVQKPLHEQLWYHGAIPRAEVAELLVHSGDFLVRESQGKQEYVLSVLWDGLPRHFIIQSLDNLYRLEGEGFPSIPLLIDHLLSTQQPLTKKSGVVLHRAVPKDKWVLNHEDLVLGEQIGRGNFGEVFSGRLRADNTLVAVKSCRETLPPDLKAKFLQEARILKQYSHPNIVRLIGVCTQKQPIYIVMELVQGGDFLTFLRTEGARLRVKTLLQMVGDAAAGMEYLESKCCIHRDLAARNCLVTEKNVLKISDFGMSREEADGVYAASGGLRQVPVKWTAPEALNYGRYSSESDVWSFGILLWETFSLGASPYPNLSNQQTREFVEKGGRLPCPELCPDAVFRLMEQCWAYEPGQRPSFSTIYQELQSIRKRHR
row,Sequence,phosphorylation enrichment
1,SLNEGYARDFD [FBP1_Y216],0.94
2,SYPREYGSQEG [RBM10_Y48],0.826
3,CSRCFYQLTKL [AR_Y858_R856C],0.904
4,SSAAGYACLAY [MVD_Y131],1.07
5,QNTADYFDLFG [PTPN11_Y62_G60A_YF],1.53
6,DNAFQYMLTDR [MYH7_Y164_YF],1.02
7,GDFLSYREFHL [ERBIN_Y1107_S1112L_YF],0.956
8,VGTTAYVAPEA [IRAK4_Y354_M355V],0.911
9,IEEGTYGVVFR [CDK11B_Y449_YF],1.48
10,PQGVGYPQQQQ [EP300_Y2219_P2221Q],0.921
11,GIVEDYRPPVY [ACVRL1_Y421_F425V],0.953
12,VTSLKYSTSPY [BRIP1_Y916],0.655
13,CTTIHYNYMCK [TP53_Y234_N239K],0.826
14,RSGIYYKPESL [L2HGDH_Y103_H98R],0.915
15,LEISPYMLSGP [LRRK2_Y1718_R1723P],1.16
16,QLFGAYLRIHA [BSCL2_Y213_YF],2.12
17,CDIARYIVSQL [MAST2_Y461_P459A],1.12

row,Sequence,phosphorylation enrichment
1,GNLLIYTELGK [HGD_Y166_F169L],1.43
2,KRAIGYFSATS [FAM120A_Y327_YF],0.612
3,KTVQDYLKKFF [MMP8_Y36_E38K_YF],1.05
4,YEKFLYFLPAS [DYNC2H1_Y346_H341Y],1.31
5,VPVNGYQPVPA [ROR2_Y824],0.748
6,CIILLYIFLKN [STXBP1_Y411_R406C],0.693
7,TNRSVYFKPSL [NUP153_Y382],0.595
8,GHPYAYDWISI [BEST1_Y227_L224P],2.26
9,STFVPYEIKVQ [L1CAM_Y784],0.996
10,FRQNVYIPGSN [PCDHGA1_Y895_YF],0.613
11,QEALEYFMKQI [PIK3CA_Y1038_M1043I],1.43
12,QKNVSYVSRVS [TASOR_Y1043_T1046R],0.739
13,TFGQVYKGRHV [TNIK_Y40_YF],0.545
14,IMVFVYCRVFQ [ADRB2_Y219_S220C],0.836
15,REGKIYEYNQV [ZNF665_Y162_H157R],0.788
16,NTGGFYDLFGG [PTPN11_Y63_D61G_YF],1.18

# Reference: the supplement of paper PMC10065799, “High-throughput profiling of sequence recognition by tyrosine kinases and SH2 domains using bacterial peptide display” (eLife, 2023)
